Test [1] concerns the target 14-3-3 sigma (UniProt P31947). Put plainly: SPOT peptide array, GST-14-3-3 sigma overlay.
The target in test [2] is POB1 fifteenmer peptide 338-352 with Pro343 replaced by alanine (human). Put plainly: peptide or protein array; SPOT peptides on a cellulose membrane; GST fusion proteins (10 micrograms/ml) in PBS/BSA 5%; anti-GST antibody, peroxidase labeled secondary antibody, chemiluminescence in arbitrary units.
Test [3] has as its target POB1 fifteenmer peptide 338-352 with Pro345 replaced by alanine (human). The test is described as above.
The target in test [4] is POB1 phospho-peptide 347KTHSRASpSLDLNKVF361 (human). The description is as above.
The target of test [5] is GST-SH3 carboxy-terminal of Grb2. As to the kind of experiment: pull-down; GST or GST fusion proteins (100 μg) adsorbed to glutathione-sepharose 4B beads, two hours at 4°C with 1 mg of HEK293 cellular extract in JS lysis buffer (50 mM Hepes, 150 mM NaCl, 1% Triton-X100); washed three times in ice-cold PBS; Western blot. On the technique in general: A western blot detects proteins with antibodies after separation by electrophoresis.

Test [6] deals with T1, GST-SH3 of Amphiphysin II (UniProt O00499 520-593).
T1 construct: Amphiphysin II, SH3 domain; cloned into the SalI and BglII sites of pYEX (modified pGEX-2TK); also called AmphIISH3; GST-Amphiphysin II SH3; source: expressed in bacteria; on glutathione-Sepharose 4B beads (pull-down) or purified (peptide arrays)
T1 sequence (looked up): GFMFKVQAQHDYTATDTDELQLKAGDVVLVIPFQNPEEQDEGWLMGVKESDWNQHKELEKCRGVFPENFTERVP
Described as above.

Test [7] addresses T1, GST-SH3 of Amphiphysin II. As to the kind of experiment: peptide or protein array; SPOT peptides on a cellulose membrane; GST fusion proteins (10 micrograms/ml) in PBS/BSA 5%; anti-GST antibody, peroxidase labeled secondary antibody, chemiluminescence in arbitrary units. As to conditions: both partners purified.
Test [8] has as its target POB1 fifteenmer peptide 338-352 with proline 339 replaced by alanine (human). The description is as above.

For the molecule “POB1/REPS2 347-361 (from UniProt Q8NFH8) pS354 peptide”, the “other: spot intensity” value in test [1] (reference: unphosphorylated peptide (No. 238), sites S354) is reported as “gained; reference 991”.

Consider “POB1/REPS2 15-mer centred on Ser322 (from UniProt Q8NFH8) pS322 peptide (No. 196)”, for which the “other: spot intensity” value in test [1] (reference: unphosphorylated peptide (No. 232), sites S322) is recorded as “none in both; reference 1400”.

Take “GST-SH3 carboxy-terminal of Grb2 (domain or fragment)”: the percent of the binding to the unmutated peptide in test [2] and in test [3] was 30% throughout.

As for “GST-14-3-3 sigma (from UniProt P31947 1-248) (natural protein)”, the signal intensity (arbitrary units (a.u.)) in test [4] was 8500.

As for “Myc-tagged POB1 (full length) (natural protein)”, the results for the percent of the input bound in test [5] and in test [6] were 4% and 25%, respectively.

B1: POB1 fifteenmer peptide 338PPTPPPRPQKTHSRA352 (peptide)
peptide: PPTPPPRPQKTHSRA
notes: numbers count on: isoform 2, Q8NFH8-2; source: SPOT synthesis on a cellulose membrane
As to B1, the binding result in test [7] is reported as “binds”.

B2: GST-SH3 of Amphiphysin II (domain or fragment)
chain: GFMFKVQAQHDYTATDTDELQLKAGDVVLVIPFQNPEEQDEGWLMGVKESDWNQHKELEKCRGVFPENFTERVP
B2 gave a percent of the binding to the unmutated peptide in test [8] of 31%.

These data come from PMC2494995, “The central proline rich region of POB1/REPS2 plays a regulatory role in epidermal growth factor receptor endocytosis by binding to 14-3-3 and SH3 domain-containing proteins” (BMC Biochemistry, 2008).
